# Patent publication US20230031262A1, “TREATMENT OF MILD TRAUMATIC BRAIN INJURY” (OXEIA BIOPHARMACEUTICALS, INC., priority 2019, published 2023)
# Where no end group is shown, it is not given here. The star is where a group is joined. Octanoyl = CCCCCCCC(=O)*
# How the values were obtained:
# [1] = in vivo; cited from earlier work
# [2] = stability of reconstituted OXE-103 drug product on storage; type: physicochemical; conditions: reconstituted OXE-103 for SC administration 14 mg in 5 mL multi-use vials
# Protocol: OXE-103 drug product, placebo, and diluent are stored refrigerated between 2° C. to 8° C. (35.6° F. to 46.4° F.). Reconstituted OXE-103 for SC administration 14 mg (in 5 mL multi-use vials) is stable for up to 14 days at 10° C. or for up to 3 days when stored at 25° C./1000 Lux. The reconstituted drug product (and placebo) is stored refrigerated at 2° C. to 8° C. (35.6° F. to 46.4° F.).
# [3] = in vivo; cited from earlier work; remark: listed apart in the source
# [4] = in vivo; cited from earlier work; remark: listed apart in the source
substance,measurement,setting,value
"ghrelin (GSS(Octanoyl)FLSPEHQRVQQRKESKKPPAKLQPR; UniProt Q9UBU3 24-51, looked up) [OXE-103]",serum half-life,[1],about 30 minutes
same,"stable for up to (reconstituted, storage time)",[2]; at 10° C.,up to 14 days
same,"stable for up to (reconstituted, storage time)",[2]; stored at 25° C./1000 Lux,up to 3 days
same,safety,[3],quite safe
same,adverse effects of long term use,[4],"increased appetite, weight gain, and adiposity"
